Reference: paper PMC3154745 (Chembiochem : a European journal of chemical biology, 2011)
Where two headings read alike, the source gives them in different places. Primed or numbered codes have the meaning given here. No end group written: not given here. fluorescein″ = fluorescein label at the N-terminus of the peptide; fluorescein = fluorescein group at the N-terminus

B1: HP1a-CSD (residues 131-206), wild type (domain or fragment, D. melanogaster, UniProt P05205 131-206, looked up)
chain: EQDTIPVSGSTGFDRGLEAEKILGASDNNGRLTFLIQFKGVDQAEMVPSSVANEKIPRMVIHFYEERLSWYSDNED
B4: HP1a-CSD W200A (residues 131-206) (domain or fragment, D. melanogaster, UniProt P05205 131-206, looked up)
chain: EQDTIPVSGSTGFDRGLEAEKILGASDNNGRLTFLIQFKGVDQAEMVPSSVANEKIPRMVIHFYEERLSAYSDNED
B5: HP1a-CSD S199E S202E double mutant (residues 131-206) (domain or fragment, D. melanogaster, UniProt P05205 131-206, looked up)
chain: EQDTIPVSGSTGFDRGLEAEKILGASDNNGRLTFLIQFKGVDQAEMVPSSVANEKIPRMVIHFYEERLEWYEDNED
B9: HP1a-CSD E195Q (residues 131-206) (domain or fragment, D. melanogaster, UniProt P05205 131-206, looked up)
chain: EQDTIPVSGSTGFDRGLEAEKILGASDNNGRLTFLIQFKGVDQAEMVPSSVANEKIPRMVIHFYQERLSWYSDNED
B11: HP1a-CSDΔ204 (residues 131-203) (domain or fragment, D. melanogaster, UniProt P05205 131-203, looked up)
chain: EQDTIPVSGSTGFDRGLEAEKILGASDNNGRLTFLIQFKGVDQAEMVPSSVANEKIPRMVIHFYEERLSWYSD

Columns and labels:
[1] = molecular target: the molecule itself; assay: AUC
[2] = molecular target: the molecule itself; assay: AUC; remark: listed apart in the source
[3] = molecular target: B1; assay: fluorescence polarisation
[4] = molecular target: B4; assay: fluorescence polarisation
[5] = molecular target: T1, HP1a-CSD A174E (residues 131-206) (D. melanogaster, UniProt P05205 131-206, A174E); assay: fluorescence polarisation
T1 sequence (looked up): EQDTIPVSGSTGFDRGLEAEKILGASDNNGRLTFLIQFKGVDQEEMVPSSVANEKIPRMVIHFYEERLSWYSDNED

[6] = molecular target: B5; assay: fluorescence polarisation
[7] = molecular target: T2, HP1a-CSD I191E (residues 131-206) (D. melanogaster, UniProt P05205 131-206, I191E); assay: fluorescence polarisation
T2 sequence (looked up): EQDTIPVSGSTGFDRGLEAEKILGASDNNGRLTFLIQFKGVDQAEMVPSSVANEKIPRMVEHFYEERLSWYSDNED

[8] = molecular target: B11; assay: fluorescence polarisation
[9] = molecular target: B9; assay: fluorescence polarisation
[10] = molecular target: the molecule itself; assay: SEC
[11] = molecular target: the molecule itself; assay: AUC; remark: listed apart in the source
[12] = molecular target: B1; assay: fluorescence polarisation; remark: listed apart in the source
[13] = molecular target: B1; assay: NMR titration

## B1
[1]
  Kd: 1.6 ± 0.4 µM
[2]
  Kd: 3 ± 0.2 µM

B2: PIWI peptide, N-terminal fluorescein (peptide)
peptide: fluorescein-TSRGSGDPRVKVFRGSSSGDY
[3]
  Kd: 20 ± 0.5 µM
[4]
  Kd: > 2000 µM
[5]
  Kd: 101 ± 6 µM
[6]
  Kd: 1.7 ± 0.1 µM
[7]
  Kd: > 2000 µM
[8]
  Kd: 60 ± 2 µM
[9]
  Kd: 97 ± 12 µM

B3: HP2 peptide Cys to Ser mutant (LSVKI), N-terminal fluorescein (peptide)
peptide: fluorescein-QNISPRKLSVKINRRPYNKWLR
[3]
  Kd: 0.3 ± 0.02 µM
[4]
  Kd: > 500 µM
[5]
  Kd: 1.26 ± 0.12 µM
[6]
  Kd: 0.044 ± 0.007 µM
[7]
  Kd: > 400 µM
[8]
  Kd: 4.9 ± 0.6 µM
[9]
  Kd: 3.7 ± 0.4 µM

## B4
[10]
  stoichiometry N: 2
[11]
  Kd: 5.8 ± 0.6 µM

## B5
[2]
  Kd: 19 ± 1 µM

B6: AF10 peptide, N-terminal fluorescein (peptide)
peptide: {fluorescein″}-PATTSPLVVLSNQLPLNSVAASY
[12]
  binding result: binds

B7: HP2 peptide wild type (LCVKI), N-terminal fluorescein (peptide)
peptide: {fluorescein″}-QNISPRKLCVKINRRPYNKWLR
[3]
  Kd: 0.14 ± 0.07 µM

B8: CG15356 peptide, N-terminal fluorescein (peptide)
peptide: {fluorescein″}-SEGRRLYPLLPRISPQTALSIVANDLAESD
[12]
  binding result: binds

## B9
[2]
  Kd: 4.3 ± 0.4 µM

B10: PIWI peptide as used in NMR (peptide)
peptide: TSRGSGDPRVKVFRGSSSGDY
[13]
  binding result: binds

## B11
[2]
  Kd: 2 ± 0.2 µM
